In publication PMC3542827:

Columns and labels:
Experiment in all cases: EMSA
[1] = test system: ParB (wild type) (Pseudomonas aeruginosa (PAO1161?)); settings: EMSA: 5.6 pmol dsDNA with 10, 20, 30, 50 pmol His6-ParB, 37 °C, 15 min; buffer as in Kusiak et al. 2011 (not given); 10% native PAGE in TBE
[2] = test system: ParB V285A (Pseudomonas aeruginosa (PAO1161?))
[3] = test system: ParB L286A (Pseudomonas aeruginosa (PAO1161?))
[4] = test system: ParB L282A (Pseudomonas aeruginosa (PAO1161?))

Substance: parS2/3 (oligos #17/#18)
- binding signal (fold affinity (reference)) [1]: 1
- binding signal (fold affinity vs wild-type ParB) [2]: 0.5
- binding signal (fold affinity vs wild-type ParB) [3]: 2
- binding signal (fold affinity vs wild-type ParB) [4]: 0.5
